Source: PMC3882236, “A Neutralization Epitope in the Hepatitis C Virus E2 Glycoprotein Interacts with Host Entry Factor CD81” (PLoS ONE, 2014)

Experiments:
Assay in all cases: luciferase-based plate binding assay; supernatant (100 uL/well) with E2-16Fc or a mutant form held on protein A-coated 96-well plates, room temperature, 1 h; PBS-T wash; CD81-Luc supernatant (2.5x10^6 units of luciferase activity in 30 uL) added for 1 h, with or without 1H8 (10 or 50 ug/reaction); PBS-T rinse; bound luciferase activity read
Details in all cases: partners not purified
E2-16Fc W529A = target: T1, E2-16Fc W529A (Hepatitis C virus genotype 1a, H77 …, UniProt P27958 384-661, W529A)
T1 construct: HCV envelope glycoprotein E2, residues 384-661, HCV genotype 1a H77 strain, single site mutant of E2-16Fc; Same construct as m1 with one substitution; source: Huh7, transiently transfected, secreted into the cell culture medium (supernatant)

E2-16Fc Y527A = target: T2, E2-16Fc Y527A (Hepatitis C virus genotype 1a, H77 …, UniProt P27958 384-661, Y527A)
T2 construct: HCV envelope glycoprotein E2, residues 384-661, HCV genotype 1a H77 strain, single site mutant of E2-16Fc; Same construct as m1 with one substitution; source: Huh7, transiently transfected, secreted into the cell culture medium (supernatant)

E2-16Fc T526A = target: T3, E2-16Fc T526A (Hepatitis C virus genotype 1a, H77 …, UniProt P27958 384-661, T526A)
T3 construct: HCV envelope glycoprotein E2, residues 384-661, HCV genotype 1a H77 strain, single site mutant of E2-16Fc; Same construct as m1 with one substitution; source: Huh7, transiently transfected, secreted into the cell culture medium (supernatant)

B1: CD81-Luc (large extracellular domain of human CD81, residues 113-201, fused with gaussia luciferase) (domain or fragment, UniProt P60033 113-201, looked up)
chain: FVNKDQIAKDVKQFYDQALQQAVVDDDANNAKAVVKTFHETLDCCGSSTLTALTTSVLKNNLCPSGSNIISNLFKEDCHQKIDDLFSGK
notes: human CD81, large extracellular domain, residues 113-201; source: Huh7, transiently transfected, secreted into the cell culture medium (supernatant)
E2-16Fc W529A
  percent reduction of binding compared to the wild-type E2-16Fc: 99.2%
E2-16Fc Y527A
  percent reduction of binding compared to the wild-type E2-16Fc: 98.4%
E2-16Fc T526A
  percent reduction of binding compared to the wild-type E2-16Fc: 83.1%
